Test results as given in PMC7042354, “Distinct surfaces on Cdc5/PLK Polo-box domain orchestrate combinatorial substrate recognition during cell division” (Scientific Reports, 2020).
Square brackets hold non-standard residues; d marks the D form. Ends that are not written are not given here. pS = N[C@@H](COP(=O)(O)O)C(=O)O

What was measured:
cdc5-S630Q mutant = test: Proliferation assay (spot dilution) of cdc5 mutants with DNA damaging agents; type: cell-based, Saccharomyces cerevisiae; settings: 0.4 μM 4-NQO on YPAD, 23 °C, n = 5
Protocol: All yeast strains used in this study were constructed in the W303 background and their relevant genotypes are summarized in (Supplemental Table 2). Standard conditions and procedures were used for yeast growth, sporulation and tetrad dissection. Growth of temperature-sensitive (ts) mutants in liquid media was performed at 23 °C (permissive temperature) and 37 °C (non-permissive temperature).
The temperature-sensitive (ts) growth behavior of cdc5 mutants was monitored on solid YPAD medium at the following temperatures: 23, 30 and 37.5 °C. Their sensitivity to DNA replication inhibitors and DNA damaging agents was assessed at 23 °C on YPAD medium containing either 100 mM hydroxyurea (HU) or 0.4 μM 4-nitroquinoline N-oxide (4-NQO). In all cases, cultures of yeast strains were diluted fivefold and subsequently spotted on solid medium, using a starting OD600 of 0.2 in the first dilution. Yeast were allowed to grow for approximately 36–72 hours at the indicated temperatures prior to scanning plates. The experiment was repeated 5 times (n = 5).

[1] = target: T1, polo-box domain of Cdc5 (residues 418–705) (Saccharomyces cerevisiae, UniProt P32562 418-705); test: ITC; Nano ITC; 30 µM protein in the chamber cell, 280 µM peptide in the syringe; storage buffer (50 mM TRIS-HCl pH 7.0, 200 mM NaCl, 1.4 mM 2-mercaptoethanol, 5% glycerol) with 20 mM EDTA pH 8.0; settings: both partners purified
T1 construct: Cdc5, Polo-like kinase of Saccharomyces cerevisiae, residues 418-705 (polo-box domain with the preceding extension), subcloned in pPROEX HTa; Residues 418-459 disordered in the crystal; loop 594-601 possibly cleaved during crystallization of the apo form; also called Cdc5^PBD; PBD of Cdc5
T1 sequence (looked up): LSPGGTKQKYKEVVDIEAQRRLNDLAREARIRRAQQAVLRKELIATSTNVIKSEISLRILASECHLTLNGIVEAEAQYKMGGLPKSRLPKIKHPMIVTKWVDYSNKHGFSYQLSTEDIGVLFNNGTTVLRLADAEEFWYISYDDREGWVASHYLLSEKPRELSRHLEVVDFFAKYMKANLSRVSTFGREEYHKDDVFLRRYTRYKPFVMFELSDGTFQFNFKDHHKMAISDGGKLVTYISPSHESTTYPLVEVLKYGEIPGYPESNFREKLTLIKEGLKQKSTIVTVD

[2] = target: T1, polo-box domain of Cdc5 (residues …); test: crystal structure; Cdc5 polo-box domain (5 mg/mL) mixed with Dbf4 peptide at 1:10 protein:peptide, overnight at 4 °C; crystals in 20% PEG 3350, 200 mM sodium potassium tartrate, 10 mM trimethylamine hydrochloride; settings: both partners purified
[3] = target: T1, polo-box domain of Cdc5 (residues …); test: crystal structure; Cdc5 polo-box domain (5 mg/mL) mixed with Spc72^P at 1:15 protein:peptide, overnight at 4 °C; crystals in 100 mM Bis-TRIS pH 6.5, 25% PEG3350, 200 mM MgCl2, 100 mM CsCl; settings: both partners purified
[4] = target: T2, polo-box domain of Cdc5 pre-incubated with the Dbf4 peptide (Cdc5-Dbf4) (Saccharomyces cerevisiae | S. cerevisiae, UniProt P32562 418-705); test: saturation-transfer difference (STD) NMR and 1D 1H NMR chemical shifts; ternary sample: 20 µM Cdc5 with both Dbf4 and Spc72^P peptides (500 µM); 20 mM sodium phosphate pH 7.0, 200 mM NaCl, 20 mM EDTA, >99% D2O; 298 K; settings: both partners purified
T2 construct: Cdc5, Polo-like kinase of Saccharomyces cerevisiae, residues 418-705; Dbf4 of budding yeast, residues 73-96

For `O=[N+]([O-])c1cc[n+]([O-])c2ccccc12` [4-NQO, 4-nitroquinoline 1-oxide], the “growth of cdc5-S630Q mutant in presence of agent” value (cdc5-S630Q mutant; 36–72 h) was “very little or no growth” and the “hypersensitivity of cdc5-S630Q mutant compared with smc5-6 cells” value (cdc5-S630Q mutant) was “comparable to that of cells defective in the Smc5-6 complex”.

B1: Dbf4-derived peptide (73-96) (peptide)
peptide: EKKRARIERARSIEGAVQVSKGTG
notes: Dbf4, regulatory subunit of the Dbf4-dependent kinase of budding yeast, residues 73-96; Peptide used for ITC and NMR; also called Dbf4 peptide; source: synthetic peptide, bought: GenScript
B1 showed a Kd [1] of roughly 500 nM.

B2: Dbf4-derived peptide (76-96) from the polo-interacting region of Dbf4 (peptide)
peptide: RARIERARSIEGAVQVSKGTG
notes: Dbf4, regulatory subunit of the Dbf4-dependent kinase of budding yeast, residues 76-96; Peptide used for crystallization; also called Dbf4 peptide; source: synthetic peptide, bought: GenScript
B2: binds [2].

B3: Spc72^P phosphorylated peptide (227-237) derived from the spindle-pole body protein Spc72 (peptide)
peptide: SLAQS[pS]PAGSQ
notes: Spc72, spindle pole body protein of budding yeast, residues 227-237; Peptide used for crystallization; also called Spc72^P phosphopeptide; source: synthetic peptide, bought: GenScript
B3: binds [3].

B4: Spc72^P phosphorylated peptide (printed as 222-237) (peptide)
peptide: DKEEFLSLAQS[pS]PAGSQ
notes: Spc72, spindle pole body protein of budding yeast; Peptide used for ITC and NMR; also called Scp72^P; Spc72^P peptide; source: synthetic peptide, bought: GenScript
B4: binds [1]; binds [4].
